From IntAct's records for PubMed 22453338

B1: Cyclin-D1-binding protein 1 (Homo sapiens), O95273 (parent)
chain: MASATAPAAAVPTLASPLEQLRHLAEELRLLLPRVRVGEAQETTEEFNREMFWRRLNEAAVTVSREATTLTIVFSQLPLPSPQETQKFCEQVHAAIKAFIAVYYLLPKDQGITLRKLVRGATLDIVDGMAQLMEVLSVTPTQSPENNDLISYNSVWVACQQMPQIPRDNKAAALLMLTKNVDFVKDAHEEMEQAVEECDPYSGLLNDTEENNSDNHNHEDDVLGFPSNQDLYWSEDDQELIIPCLALVRASKACLKKIRMLVAENGKKDQVAQLDDIVDISDEISPSVDDLALSIYPPMCHLTVRINSAKLVSVLKKALEITKASHVTPQPEDSWIPLLINAIDHCMNRIKELTQSELEL
B2: Cyclin-D1-binding protein 1 (Homo sapiens), O95273 (parent)
chain: B1 chain
partner: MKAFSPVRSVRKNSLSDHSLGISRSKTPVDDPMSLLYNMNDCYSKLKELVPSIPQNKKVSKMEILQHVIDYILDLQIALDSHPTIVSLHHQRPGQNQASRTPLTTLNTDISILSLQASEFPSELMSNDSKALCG

Variants of: B1
Details: with ndf1_mouse Neurod1, Q60867
ndf1_mouse Neurod1, Q60867, sequence (Q60867 whole entry): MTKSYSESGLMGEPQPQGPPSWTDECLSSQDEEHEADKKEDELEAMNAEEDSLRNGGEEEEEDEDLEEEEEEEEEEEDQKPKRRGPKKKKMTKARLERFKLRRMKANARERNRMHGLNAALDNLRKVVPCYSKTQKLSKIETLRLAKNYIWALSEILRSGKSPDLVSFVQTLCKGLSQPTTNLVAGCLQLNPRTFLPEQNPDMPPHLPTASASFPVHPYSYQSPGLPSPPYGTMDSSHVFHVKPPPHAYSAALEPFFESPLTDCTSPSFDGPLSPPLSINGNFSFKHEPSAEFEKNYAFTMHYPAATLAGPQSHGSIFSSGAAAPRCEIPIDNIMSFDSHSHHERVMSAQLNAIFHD

Variant	effect of a mutation on the interaction
P166Y	increasing interaction

Variants of: B1
Details: with ndf1_mouse Neurod1, Q60867
Remark: another data set of the same source

Variant	effect of a mutation on the interaction
V271F	increasing interaction

Variants of: B1
Details: with ndf1_mouse Neurod1, Q60867
Remark: another data set of the same source

Variant	effect of a mutation on the interaction
V278R	increasing interaction

Variants of: B1
Details: with ndf1_mouse Neurod1, Q60867
Remark: another data set of the same source

Variant	effect of a mutation on the interaction
N169E	increasing interaction

Variants of: B2
Details: with id2_human ID2, Q02363

Variant	effect of a mutation on the interaction
V271F	increasing interaction

Variants of: B2
Details: with id2_human ID2, Q02363
Remark: another data set of the same source

Variant	effect of a mutation on the interaction
V278R	increasing interaction

Variants of: B2
Details: with id2_human ID2, Q02363
Remark: another data set of the same source

Variant	effect of a mutation on the interaction
P166Y	increasing interaction

Variants of: B2
Details: with id2_human ID2, Q02363
Remark: another data set of the same source

Variant	effect of a mutation on the interaction
N169E	increasing interaction
